Assay results from patent publication US6037450.

Biological target: human protein C (human) (UniProt P04070)
Assay: protein C affinity column (protein C held on HPC4 mAb-AffiGel-10, 3 mM CaCl2, 0.6 mM MgCl2); EPCR antigen in the fractions measured by ELISA

UniProt P04070, sequence (P04070 43-461): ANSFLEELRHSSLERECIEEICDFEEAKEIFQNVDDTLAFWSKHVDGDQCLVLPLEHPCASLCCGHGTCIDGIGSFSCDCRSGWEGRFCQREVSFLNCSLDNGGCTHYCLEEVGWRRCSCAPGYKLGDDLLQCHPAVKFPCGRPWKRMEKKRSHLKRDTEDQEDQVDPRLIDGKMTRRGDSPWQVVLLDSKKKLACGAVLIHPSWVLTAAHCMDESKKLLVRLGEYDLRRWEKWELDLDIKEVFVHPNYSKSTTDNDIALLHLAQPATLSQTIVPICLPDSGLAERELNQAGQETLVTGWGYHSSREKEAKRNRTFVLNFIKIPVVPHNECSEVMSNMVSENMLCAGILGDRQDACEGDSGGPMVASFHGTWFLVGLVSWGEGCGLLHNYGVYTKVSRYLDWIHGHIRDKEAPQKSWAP

- percent of applied antigen bound: > 98%
B1: plasma EPCR (soluble endothelial cell protein C/activated protein C receptor purified from human citrated plasma) (receptor)
chain: SQDASDGLQRLHMLQISYFRDPYHVWYQGNASLGGHLTHVLEGPDTNTTIIQLQPLQEPESWARTQSGLQSYLLQFHGLVRLVHQERTLAFPLTIRCFLGCELPPEGSRAHVFFEVAVNGSSFVSFRPERALWQADTQVTSGVVTFTLQQLNAYNRTRYELREFLEDTCVQYVQKHISAENTKG
